In IntAct's records for PubMed 29477555:

B1: Serine protease HTRA3 (Homo sapiens), P83110-1 (parent)
chain: MQARALLLAALAALALAREPPAAPCPARCDVSRCPSPRCPGGYVPDLCNCCLVCAASEGEPCGGPLDSPCGESLECVRGLCRCRWSHAVCGTDGHTYANVCALQAASRRALQLSGTPVRQLQKGACPLGLHQLSSPRYKFNFIADVVEKIAPAVVHIELFLRHPLFGRNVPLSSGSGFIMSEAGLIITNAHVVSSNSAAPGRQQLKVQLQNGDSYEATIKDIDKKSDIATIKIHPKKKLPVLLLGHSADLRPGEFVVAIGSPFALQNTVTTGIVSTAQREGRELGLRDSDMDYIQTDAIINYGNSGGPLVNLDGEVIGINTLKVTAGISFAIPSDRITRFLTEFQDKQIKDWKKRFIGIRMRTITPSLVDELKASNPDFPEVSSGIYVQEVAPNSPSQRGGIQDGDIIVKVNGRPLVDSSELQEAVLTESPLLLEVRRGNDDLLFSIAPEVVM
B2: Serine protease HTRA3 (Homo sapiens), P83110-2 (parent)
chain: MQARALLLAALAALALAREPPAAPCPARCDVSRCPSPRCPGGYVPDLCNCCLVCAASEGEPCGGPLDSPCGESLECVRGLCRCRWSHAVCGTDGHTYANVCALQAASRRALQLSGTPVRQLQKGACPLGLHQLSSPRYKFNFIADVVEKIAPAVVHIELFLRHPLFGRNVPLSSGSGFIMSEAGLIITNAHVVSSNSAAPGRQQLKVQLQNGDSYEATIKDIDKKSDIATIKIHPKKKLPVLLLGHSADLRPGEFVVAIGSPFALQNTVTTGIVSTAQREGRELGLRDSDMDYIQTDAIINYGNSGGPLVNLDGEVIGINTLKVTAGISFAIPSDRITRFLTEFQDKQIKAPSLAVH

Variants of: B1
Conditions: with tcpa_human TCP1, P17987
Target sequence in this assay (P17987 whole entry): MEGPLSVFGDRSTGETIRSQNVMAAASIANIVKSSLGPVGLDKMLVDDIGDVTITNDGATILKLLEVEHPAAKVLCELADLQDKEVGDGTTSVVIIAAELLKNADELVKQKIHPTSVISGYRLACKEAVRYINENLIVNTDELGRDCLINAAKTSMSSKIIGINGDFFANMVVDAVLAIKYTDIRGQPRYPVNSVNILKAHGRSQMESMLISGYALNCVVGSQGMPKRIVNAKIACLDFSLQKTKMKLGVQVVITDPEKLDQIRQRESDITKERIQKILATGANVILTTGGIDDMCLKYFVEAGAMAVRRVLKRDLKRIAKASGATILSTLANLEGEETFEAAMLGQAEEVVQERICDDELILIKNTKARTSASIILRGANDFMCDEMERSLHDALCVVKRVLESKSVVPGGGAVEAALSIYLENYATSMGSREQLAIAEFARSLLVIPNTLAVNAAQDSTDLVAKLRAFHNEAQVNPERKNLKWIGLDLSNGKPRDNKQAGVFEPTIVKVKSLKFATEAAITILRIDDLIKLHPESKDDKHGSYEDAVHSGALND
For S305A, the “effect of a mutation on the interaction” value was “decreasing interaction strength”.

Variants of: B2
Conditions: with tcpa_human TCP1, P17987
Target sequence in this assay (P17987 whole entry): as above
In the case of S305A, the “effect of a mutation on the interaction” value is reported as “decreasing interaction strength”.
